Data: patent US20260217814 (published 2026)

Assays:
human IL-17A [1] = target: T1, human IL-17A (human); assay: SPR
T1 chain: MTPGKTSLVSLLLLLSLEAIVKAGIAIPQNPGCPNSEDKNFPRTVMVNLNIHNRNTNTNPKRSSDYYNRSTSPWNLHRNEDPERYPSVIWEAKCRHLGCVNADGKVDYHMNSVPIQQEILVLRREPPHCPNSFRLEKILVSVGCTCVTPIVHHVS

human TNFa = human TNFa (human); assay: SPR
IL-17D = target: T2, IL-17D (human); assay: competition
T2 chain: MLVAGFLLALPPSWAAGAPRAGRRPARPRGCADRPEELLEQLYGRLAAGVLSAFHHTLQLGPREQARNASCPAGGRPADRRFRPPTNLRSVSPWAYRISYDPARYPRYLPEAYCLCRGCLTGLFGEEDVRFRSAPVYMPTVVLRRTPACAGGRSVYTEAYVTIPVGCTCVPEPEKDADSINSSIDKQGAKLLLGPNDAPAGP

IL-17B = target: T3, IL-17B (human); assay: competition ELISA
T3 chain: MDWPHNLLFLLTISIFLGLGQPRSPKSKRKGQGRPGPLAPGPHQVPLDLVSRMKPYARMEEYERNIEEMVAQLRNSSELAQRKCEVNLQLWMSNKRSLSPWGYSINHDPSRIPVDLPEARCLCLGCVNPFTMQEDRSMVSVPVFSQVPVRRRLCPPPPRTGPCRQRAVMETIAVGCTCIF

IL-17F = target: T4, IL-17F (human); assay: competition ELISA
T4 chain: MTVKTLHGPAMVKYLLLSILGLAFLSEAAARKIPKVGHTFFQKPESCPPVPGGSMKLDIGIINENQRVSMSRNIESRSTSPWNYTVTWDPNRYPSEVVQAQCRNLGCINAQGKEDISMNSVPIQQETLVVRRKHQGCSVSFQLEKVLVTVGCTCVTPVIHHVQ

human IL-17A [2] = target: T1, human IL-17A; assay: SPR, direct setup
IL-17C = target: T5, IL-17C (human); assay: competition ELISA
T5 chain: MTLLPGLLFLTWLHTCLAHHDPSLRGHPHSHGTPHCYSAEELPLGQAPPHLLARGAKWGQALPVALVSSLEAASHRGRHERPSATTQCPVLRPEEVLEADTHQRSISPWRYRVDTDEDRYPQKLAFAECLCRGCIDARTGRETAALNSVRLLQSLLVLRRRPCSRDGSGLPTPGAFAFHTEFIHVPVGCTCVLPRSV

IL-17E = target: T6, IL-17E (human); assay: competition ELISA
T6 chain: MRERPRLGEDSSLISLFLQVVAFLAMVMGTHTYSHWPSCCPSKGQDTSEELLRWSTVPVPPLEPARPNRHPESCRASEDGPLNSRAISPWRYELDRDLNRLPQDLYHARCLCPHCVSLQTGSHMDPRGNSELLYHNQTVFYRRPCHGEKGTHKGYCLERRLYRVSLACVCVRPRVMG

human IL-17A [3] = target: T1, human IL-17A; assay: SPR, capture setup

B1: A4 IL-17A arm (antibody)
chain 1: EVQLVESGGGLVQPGGSLRLSCAASGFSFSSDYWMCWVRQAPGKGLEWIGCIYAGDVDDTDYASWARGRFTISRDNSKNTVYLQMNSLRAEDTAVYYCARVDGFDITYFDLWGQGTLVTVSSASTKGPSVFPLAPSSKSTSGGTAALGCLVKDYFPEPVTVSWNSGALTSGVHTFPAVLQSSGLYSLSSVVTVPSSSLGTQTYICNVNHKPSNTKVDKKVEPKSCGGGGSGGGGSDIQMTQSPSSLSASVGDRVTITCQSSESVYSNNQLSWYQQKPGQPPKLLIYDASDLASGVPSRFSGSGSGTDFTLTISSLQPEDFATYYCAGGFSSSSDTAFGGGTKLTVLGGGGGSGGGGSGGGGSGGGGSEVQLVESGGGLVQPGGSLRLSCAASGFSLSSNAMGWVRQAPGKGLEYIGIISVGGFTYYASWAKGRFTISRDNSKNTVYLQMNSLRAEDTATYFCARDRHGGDSSGAFYLWGQGTLVTVSS
chain 2: DIQMTQSPSSLSASVGDRVTITCQASQTINYWLAWYQQKPGKAPKLLIYRASTLASGVPSRFSGSGSGTDFTLTISSLQPEDFATYYCQNYYYSTSRSYGFGGGTKLTVLGRTRTVAAPSVFIFPPSDEQLKSGTASVVCLLNNFYPREAKVQWKVDNALQSGNSQESVTEQDSKDSTYSLSSTLTLSKADYEKHKVYACEVTHQGLSSPVTKSFNRGECGGGGSGGGGSDIQMTQSPSSLSASVGDRVTINCQASESISSWLAWYQQKPGKRPKLLIYKASTLASGVPSRFSGSGSGTDYTLTISSLQPEDFATYYCQGYYLDSSVDDNVFGGGTKLTVLGGGGGSGGGGSGGGGSGGGGSEVQLVESGGGLVQPGGSLRLSCAASGIDFSTYGISWVRQAPGKGLEWIAYIYPDYGITDYASWVNGRFTISLDNAQNTVYLQMNSLRAEDTAVYYCARSGSYYSRGWGAHYFNLWGQGTLVTVSS
With B1 the Kd (human IL-17A [1]) was 0.337 nM.

B2: A4 TNFa arm (antibody)
chain 1: B1 chain 1
chain 2: B1 chain 2
For B2, the Kd (human TNFa) was 0.257 nM.

B3: A5 TNFa arm (antibody)
chain 1: EVQLVESGGGLVQPGGSLRLSCAASGIDFSTYGISWVRQAPGKGLEWIAYIYPDYGITDYASWVNGRFTISLDNAQNTVYLQMNSLRAEDTAVYYCARSGSYYSRGWGAHYFNLWGQGTLVTVSSASTKGPSVFPLAPSSKSTSGGTAALGCLVKDYFPEPVTVSWNSGALTSGVHTFPAVLQSSGLYSLSSVVTVPSSSLGTQTYICNVNHKPSNTKVDKKVEPKSCGGGGSGGGGSDIQMTQSPSSLSASVGDRVTITCQASQTINYWLAWYQQKPGKAPKLLIYRASTLASGVPSRFSGSGSGTDFTLTISSLQPEDFATYYCQNYYYSTSRSYGFGGGTKLTVLGGGGGSGGGGSGGGGSGGGGSEVQLVESGGGLVQPGGSLRLSCAASGFSFSSDYWMCWVRQAPGKGLEWIGCIYAGDVDDTDYASWARGRFTISRDNSKNTVYLQMNSLRAEDTAVYYCARVDGFDITYFDLWGQGTLVTVSS
chain 2: DIQMTQSPSSLSASVGDRVTINCQASESISSWLAWYQQKPGKRPKLLIYKASTLASGVPSRFSGSGSGTDYTLTISSLQPEDFATYYCQGYYLDSSVDDNVFGGGTKLTVLGRTRTVAAPSVFIFPPSDEQLKSGTASVVCLLNNFYPREAKVQWKVDNALQSGNSQESVTEQDSKDSTYSLSSTLTLSKADYEKHKVYACEVTHQGLSSPVTKSFNRGECGGGGSGGGGSDIQMTQSPSSLSASVGDRVTITCQSSESVYSNNQLSWYQQKPGQPPKLLIYDASDLASGVPSRFSGSGSGTDFTLTISSLQPEDFATYYCAGGFSSSSDTAFGGGTKLTVLGGGGGSGGGGSGGGGSGGGGSEVQLVESGGGLVQPGGSLRLSCAASGFSLSSNAMGWVRQAPGKGLEYIGIISVGGFTYYASWAKGRFTISRDNSKNTVYLQMNSLRAEDTATYFCARDRHGGDSSGAFYLWGQGTLVTVSS
With B3 the Kd (human TNFa) was 0.1 nM.

B4: PRO592 (27-31-C04-sc02) (antibody)
chain: DIQMTQSPSSLSASVGDRVTITCQASESIYRYLSWYQQKPGKAPKLLIYLASTLTSGVPSRFSGSGSGTDFTLTISSLQPEDFATYYCQSNFGTASTTYYNTFGGGTKLTVLGGGGGSGGGGSGGGGSGGGGSEVQLVESGGGLVQPGGSLTLSCAASGFSFSGFYYMCWVRQAPGKGLEWIGCIDTGDGTTYYASWAKGRFTISRDNSKNTVYLQMNSLRAEDTAVYYCARDAAYGGYAYPAHGMDLWGPGTLVTVSS
B4: no binding (IL-17D); no binding (IL-17B); no binding (IL-17F). The Kd (human IL-17A [2]) was 0.038 nM, the binding result (IL-17C) was “no binding” and the binding result (IL-17E) was “no binding”. The Kd (human IL-17A [3]) was 0.37 nM.

B5: A2 (27-07-G02-sc02) (antibody)
chain: DIQMTQSPSSLSASVGDRVTITCQASQTINYWLAWYQQKPGKPPKLLIYRASTLASGVPSRFSGSGSGTDFTLTISSLQPEDFATYYCQNYYYSTSRSYGFGGGTKLTVLGGGGGSGGGGSGGGGSGGGGSEVQLVESGGGLVKPEGSLRLSCAASGFSFSSDYWMCWVRQAPGKGLEWIACIYAGDVDDTDYASWARGRFTISRDNSKNTVYLQMNSLRAEDTAVYYCARVDGFDITYFDLWGQGTLVTVSS
B5: no binding (IL-17D); no binding (IL-17B); no binding (IL-17F). The Kd (human IL-17A [2]) was 0.055 nM, the binding result (IL-17C) was “no binding” and the binding result (IL-17E) was “no binding”. It also gave a Kd (human IL-17A [3]) of 3 nM.

B6: A3 TNFa arm (antibody)
chain 1: EVQLVESGGGLVQPGGSLRLSCAASGFSLSSNAMGWVRQAPGKGLEYIGIISVGGFTYYASWAKGRFTISRDNSKNTVYLQMNSLRAEDTATYFCARDRHGGDSSGAFYLWGQGTLVTVSSASTKGPSVFPLAPSSKSTSGGTAALGCLVKDYFPEPVTVSWNSGALTSGVHTFPAVLQSSGLYSLSSVVTVPSSSLGTQTYICNVNHKPSNTKVDKKVEPKSCGGGGSGGGGSDIQMTQSPSSLSASVGDRVTITCQASQTINYWLAWYQQKPGKAPKLLIYRASTLASGVPSRFSGSGSGTDFTLTISSLQPEDFATYYCQNYYYSTSRSYGFGGGTKLTVLGGGGGSGGGGSGGGGSGGGGSEVQLVESGGGLVQPGGSLRLSCAASGFSFSSDYWMCWVRQAPGKGLEWIGCIYAGDVDDTDYASWARGRFTISRDNSKNTVYLQMNSLRAEDTAVYYCARVDGFDITYFDLWGQGTLVTVSS
chain 2: DIQMTQSPSSLSASVGDRVTITCQSSESVYSNNQLSWYQQKPGQPPKLLIYDASDLASGVPSRFSGSGSGTDFTLTISSLQPEDFATYYCAGGFSSSSDTAFGGGTKLTVLGRTRTVAAPSVFIFPPSDEQLKSGTASVVCLLNNFYPREAKVQWKVDNALQSGNSQESVTEQDSKDSTYSLSSTLTLSKADYEKHKVYACEVTHQGLSSPVTKSFNRGECGGGGSGGGGSDIQMTQSPSSLSASVGDRVTINCQASESISSWLAWYQQKPGKRPKLLIYKASTLASGVPSRFSGSGSGTDYTLTISSLQPEDFATYYCQGYYLDSSVDDNVFGGGTKLTVLGGGGGSGGGGSGGGGSGGGGSEVQLVESGGGLVQPGGSLRLSCAASGIDFSTYGISWVRQAPGKGLEWIAYIYPDYGITDYASWVNGRFTISLDNAQNTVYLQMNSLRAEDTAVYYCARSGSYYSRGWGAHYFNLWGQGTLVTVSS
Work on B6 yielded a Kd (human TNFa) of less than 0.0232 nM.

B7: A3 IL-17A arm (antibody)
chain 1: B6 chain 1
chain 2: B6 chain 2
For B7, the Kd (human IL-17A [1]) was 1.53 nM.
